Consider eight molecules from publication PMC2726291, “Sus1, Cdc31, and the Sac3 CID Region Form a Conserved Interaction Platform that Promotes Nuclear Pore Association and mRNA Export” (Molecular Cell, 2009).

T1: 6XHis-ENY2 (human, UniProt Q9NPA8 1-101)
T1 construct: ENY2, human homolog of Sus1; cDNA cloned into the NdeI and SalI sites of pET28a; also called human Sus1 homolog; DC6/ENY2; source: E. coli BL21, purified (Ni-NTA Agarose)
T1 sequence (looked up): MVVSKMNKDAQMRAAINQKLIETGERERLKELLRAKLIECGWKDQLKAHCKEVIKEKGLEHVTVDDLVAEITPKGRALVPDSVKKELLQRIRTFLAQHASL

T2: Sac3 residues 723–805 (Sac3^CID) (yeast, UniProt P46674 723-805)
T2 construct: Vector pGEXTEV; also called CID domain; not shown: GST, N-terminal, cleaved
T2 sequence (looked up): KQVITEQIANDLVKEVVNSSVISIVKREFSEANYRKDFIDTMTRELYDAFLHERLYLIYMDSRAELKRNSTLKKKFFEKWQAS

T3: Sus1 (of the in vitro binding studies of Figure S6) (yeast, UniProt Q6WNK7 1-96)
T3 construct: Sus1, yeast
T3 sequence (looked up): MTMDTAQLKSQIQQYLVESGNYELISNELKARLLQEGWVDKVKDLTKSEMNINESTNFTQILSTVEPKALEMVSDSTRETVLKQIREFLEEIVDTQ

B1: GST-Sac3(758–805) (domain or fragment, yeast, UniProt P46674 758-805, looked up)
chain: KDFIDTMTRELYDAFLHERLYLIYMDSRAELKRNSTLKKKFFEKWQAS
notes: Vector pGEXTEV; The methods say that GST-Sac3 fragments were coexpressed with Cdc31; source: E. coli, immobilised on glutathione Sepharose 4B resin from clarified lysate; not shown: GST, N-terminal, kept
B2: Cdc31 (recombinant, untagged, full length) (natural protein, yeast, UniProt P06704 1-161, looked up)
chain: MSKNRSSLQSGPLNSELLEEQKQEIYEAFSLFDMNNDGFLDYHELKVAMKALGFELPKREILDLIDEYDSEGRHLMKYDDFYIVMGEKILKRDPLDEIKRAFQLFDDDHTGKISIKNLRRVAKELGETLTDEELRAMIEEFDLDGDGEINENEFIAICTDS
notes: Cdc31, yeast, full length, cloned into pET30a and called untagged; the model holds residues 9–161; source: E. coli BL21(DE3) CodonPlus RIL, coexpressed with GST-Sac3 fragments, purified as a complex
B3: Sac3 (construct of the in vitro binding studies of Figure S6) (domain or fragment)
chain: T2 sequence (looked up)
modifications: Supplement text on Sus1 affinity (Figure S6): plates coated with GST-Sac3(723-805) co-complexed with full-length Cdc31; GST and the Cdc31 partner chain (P06704) omitted here
B4: Sac3 residues 753–805 (domain or fragment, yeast, UniProt P46674 753-805, looked up)
chain: EANYRKDFIDTMTRELYDAFLHERLYLIYMDSRAELKRNSTLKKKFFEKWQAS
notes: Vector pGEXTEV; not shown: GST, N-terminal, cleaved
B5: Sus1 (recombinant, untagged, full length) (natural protein, yeast, UniProt Q6WNK7 1-96, looked up)
chain: T3 sequence (looked up)
notes: Sus1, yeast, full length; the model holds residues 6–95; also called Sus1A; Sus1B; source: E. coli BL21(DE3) CodonPlus RIL, untagged vector pOPT, purified as a complex with Sac3 fragment and Cdc31
B6: GST-GANP(1162–1204) (domain or fragment, human, UniProt O60318 1162-1204, looked up)
chain: ELVLSELSQGLAVELMERVMMEFVRETCSQELKNAVETDQRVR
notes: Vector pGEXTEV; not shown: GST, N-terminal, kept
B7: GST-GANP(1162–1240) (domain or fragment, human, UniProt O60318 1162-1240, looked up)
chain: ELVLSELSQGLAVELMERVMMEFVRETCSQELKNAVETDQRVRVARCCEDVCAHLVDLFLVEEIFQTAKETLQELQCFC
notes: as for B6
B8: GST-Sac3(723–752) (domain or fragment, yeast, UniProt P46674 723-752, looked up)
chain: KQVITEQIANDLVKEVVNSSVISIVKREFS
notes: Vector pGEXTEV; source: E. coli, immobilised on glutathione Sepharose 4B resin from clarified lysate; not shown: GST, N-terminal, kept

One assay concerns the target T1, 6XHis-ENY2. Description: pull-down; GST or GST fusions immobilised on glutathione Sepharose 4B; purified ENY2 added in 10-fold excess, washed extensively with NB buffer (150 mM NaCl, 50 mM KOAc, 20 mM Tris, 2 mM Mg(OAc)2, 0.1% NP-40); SDS-PAGE (Figure S4). To be noted: both partners purified.
Assay [1] deals with T2, Sac3 residues 723–805 (Sac3^CID). Kind of assay: crystal structure; Sac3 fragment:Cdc31:Sus1 complexes, hanging drop vapor diffusion in PEG solutions at 19°C; 2.5 Å (Sac3 753–805) and 2.7 Å (Sac3 723–805). The settings on record: both partners purified.
The target of assay [2] is T3, Sus1 (of the in vitro binding studies …). Description: not stated; in vitro binding studies (Figure S6).
Assay [3] has as its target B5. Description: crystal structure; Sac3 fragment:Cdc31:Sus1 complexes, hanging drop vapor diffusion in PEG solutions at 19°C; 2.5 Å (Sac3 753–805) and 2.7 Å (Sac3 723–805). The settings on record: both partners purified.
The target in assay [4] is B2. The description is as above. To be noted: both partners purified.

As for B1, the binding result with 6XHis-ENY2 is “binds”.
B2: in assay [1], the “stoichiometry N” value is 1.
The molecule B3 showed a Kd in assay [2] of around 10 nM.
As to B4, the binding result in assay [3] and in assay [4] was “binds” in each case.
B5: the “stoichiometry N” value in assay [1] worked out at 2.
In the case of B6, in the assay with 6XHis-ENY2, the binding result is recorded as “binds”.
Turning to B7, the binding result with 6XHis-ENY2 is reported as “binds”.
On the same count and under the same terms, to B8 belongs “binds”.
